Measured values as given in article PMC4928909, “Roles of C-Terminal Region of Yeast and Human Rad52 in Rad51-Nucleoprotein Filament Formation and ssDNA Annealing”.

Columns and labels:
Assay in all cases: EMSA; 3 mM Mg acetate; 30 mM Tris-acetate pH 7.5, 3 mM Mg acetate, 20 mM NaCl, 37 C, 15 min, 100 nM labeled ssDNA; 6% PAGE in TBE
hRAD52 = molecular target: T1, hRAD52 (Homo sapiens, UniProt P43351 1-418); conditions: protein: recombinant; tags: C-terminal His6; label: 5'-32P; single strand
T1 sequence: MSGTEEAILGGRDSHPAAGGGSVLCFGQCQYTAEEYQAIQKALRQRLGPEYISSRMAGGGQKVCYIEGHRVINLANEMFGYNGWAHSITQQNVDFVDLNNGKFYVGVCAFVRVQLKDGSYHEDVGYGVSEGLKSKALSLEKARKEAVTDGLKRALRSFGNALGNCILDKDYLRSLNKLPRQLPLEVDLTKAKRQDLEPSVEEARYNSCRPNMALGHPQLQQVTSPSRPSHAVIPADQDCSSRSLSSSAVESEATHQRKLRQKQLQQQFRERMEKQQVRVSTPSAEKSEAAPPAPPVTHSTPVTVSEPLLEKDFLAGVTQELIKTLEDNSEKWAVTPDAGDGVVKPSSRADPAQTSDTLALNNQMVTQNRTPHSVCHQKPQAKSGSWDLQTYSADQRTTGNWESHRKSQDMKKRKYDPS

yRad52 = yRad52 (Saccharomyces cerevisiae, UniProt P06778 1-471); conditions: protein: recombinant; tags: C-terminal His6; chain copies: 10; label: 5'-32P; single strand
hRAD52NM = molecular target: T2, hRAD52NM (Homo sapiens, UniProt P43351 1-290); conditions: protein: recombinant; tags: C-terminal His6; chain copies: 11; label: 5'-32P; single strand
T2 sequence: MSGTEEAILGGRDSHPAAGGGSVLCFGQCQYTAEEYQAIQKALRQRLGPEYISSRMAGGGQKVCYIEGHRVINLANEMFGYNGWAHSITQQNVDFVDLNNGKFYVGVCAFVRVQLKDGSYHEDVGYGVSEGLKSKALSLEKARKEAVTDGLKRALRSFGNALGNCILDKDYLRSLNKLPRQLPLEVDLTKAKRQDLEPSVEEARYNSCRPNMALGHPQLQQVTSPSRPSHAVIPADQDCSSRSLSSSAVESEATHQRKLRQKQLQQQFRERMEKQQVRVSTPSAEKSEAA

Measured: binding result

Sequence of yRad52 (P06778 whole entry): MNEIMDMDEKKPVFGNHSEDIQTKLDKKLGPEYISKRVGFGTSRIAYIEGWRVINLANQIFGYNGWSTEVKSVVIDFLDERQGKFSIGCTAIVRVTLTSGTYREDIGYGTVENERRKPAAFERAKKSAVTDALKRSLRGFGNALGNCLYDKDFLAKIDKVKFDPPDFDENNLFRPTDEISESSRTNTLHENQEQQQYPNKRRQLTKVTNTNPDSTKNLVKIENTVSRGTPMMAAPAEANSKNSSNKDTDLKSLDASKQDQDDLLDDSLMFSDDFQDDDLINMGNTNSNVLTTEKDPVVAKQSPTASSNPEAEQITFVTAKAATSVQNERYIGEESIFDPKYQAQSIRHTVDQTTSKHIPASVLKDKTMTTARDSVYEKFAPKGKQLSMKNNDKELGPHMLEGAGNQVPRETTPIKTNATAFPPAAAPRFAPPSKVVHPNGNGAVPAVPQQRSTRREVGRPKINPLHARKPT

B1: TSO252 (ssDNA)
DNA: TGGTTGAGTACTCACCAGTCACAGAAAAGCATCTTACGGATGGCATGACAGTAAGAGAATTATGCAGTGC
binds: all assays above
